From publication doi:10.1101/2024.07.16.603655 (bioRxiv, 2024) come the findings set out here.

For data set [1], the target named is dsRBD3-6xHis (dsRNA binding domain 3 of zebrafish Prkra) (zebrafish). Put plainly: native gel or EMSA.
Data set [2] concerns the molecule itself. Put plainly: native gel or EMSA. On the technique in general: Mobility shift assays separate free from complexed probe on a gel.

As usually defined, the stoichiometry N is a count of units in the complex or per binding partner. With “dsRBD3-6xHis (dsRNA binding domain 3 of zebrafish Prkra) (domain or fragment)”, the stoichiometry N in data set [1] turned out to be 2.

B1: Prkra-6xHis (recombinant wild-type zebrafish Prkra) (natural protein, UniProt B0V3F8 1-282, looked up)
chain: MAPQRSQDKTPIQLLHEYGIKISSAPKYELIHADGDAHQPSFMFSVTIGEVTCKGRGSTKKAAKHEAAEAALKLLKRDSQIIDQRDNNGLSPEAGEASNPVGILQELAMQRVWCLPEYVVFMETGPGHMKEFTIACRLEGLEETGSGSSKKLARRAAAENMIAKLQSLSGSSEITWSPPSRVYVESLRNSTGEKVSLLKRTPLSLPNTDYIQMLLEISLELGFQVTYIDIDELTVNGQYQCLVELSTRPVTVCHGSGVTSSNAHNAAAHNALQYIKMVASKH
Turning to B1, the “stoichiometry N” value in data set [2] is about 2.
